From the RNAGym collection of RNA variant scans (doi:10.7554/elife.80360)

B1: Hammerhead Ribozyme (parent)
chain: ACCGGAUGUGCUUUCCGGUCUGAUGAGUCCGUGAGGACGAAACAG

Variants of: B1
Test: self-cleavage, relative activity (ratio to wild type); higher = more cleavage; co-transcriptional

Variant | self-cleavage
U24G G31C | 1.19
A26C U28C | 0.524
G8A A40C | 0.683
G10A U14C | 0.97
C38A G39U | 0.315
C20U C43A | 0.264
C2G G39C | 0.289
G22U A26C | 0.345
G8U C29A | 0.488
U21G C30U | 0.837
U13A G18C | 0.777
U24C C29U | 1.05
A23G G39U | 0.347
C15U C38G | 0.689
U21C C38U | 0.629
C11G G33C | 1
U14G U21C | 0.812
C30U G31A | 1.02
G35U A44C | 0.384
C3U U13A | 1.1
C3U U13C | 1.33

Variant | self-cleavage
U7C A40C | 0.418
C3A G4C | 0.216
U9C U12C | 0.982
U28A | 0.822
C2U G36A | 0.698
U13A A23G | 0.441
C2A G45A | 0.393
U21G C38A | 0.388
C3A U32G | 0.355
C3A U32A | 0.7
A26C C38G | 0.33
U14C C20G | 0.301
U9C C16G | 0.626
G36C C38A | 0.403
A1G U28A | 1.26
U7G C16U | 1.4
C16U C20A | 0.524
A23G C29G | 0.26
A41U G45C | 0.392
C11G U28G | 0.849
U21G G25A | 0.349

Variant | self-cleavage
U12A G18A | 0.726
C20U A23C | 0.353
G18C U28C | 0.263
C15U C16A | 0.76
A6G U9C | 0.834
C11G A42U | 0.326
G10C C16G | 0.522
G18A A42U | 0.338
U13A U19G | 0.425
G33A A37G | 1.28
U13C U24C | 1.31
A6G U28G | 0.461
C11G U13G | 1.11
G10U U21C | 0.896
C11A G18C | 0.586
G27U C30A | 0.317
U13G A42G | 0.316
C15G G27C | 0.427
G4U G5A | 0.284
C11U U13G | 1.25
G22C A40G | 0.351

Variant | self-cleavage
U19G G45C | 0.312
U21A G45C | 0.335
U9A G17C | 0.449
U21A G35A | 0.52
G18C G27C | 0.402
A1G G17C | 0.585
C29A C38A | 0.426
A1C C43U | 0.5
G5A C29G | 0.464
C11A U32G | 1.01
G4C A6G | 0.358
U21A A44C | 0.415
G27A A42C | 0.308
C3U G39C | 0.462
U12A A44U | 0.61
C38U | 0.974
U19G G25A | 0.275
C16G G25U | 0.384
A40C A44U | 0.347
U24G G27A | 0.504
